28 sequences from the domain aggregation screens of Martell et al. (2025) can be followed below.

The series can be described thus: soluble fraction after stress (log2 fold change); higher = more stays soluble; pooled small domains, quantitative proteomics. Particulars: stress: pH 4. Put shortly: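 How much of each domain stays soluble after acid stress, expressed as a fold change, is used to gauge aggregation propensity. Pooled custom libraries of small domains underwent pH 4 stress before high-throughput quantitative proteomics. A higher log2 value means more of the domain stayed soluble.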
Take “HMKIEEVIEKLKTDSIISRKEYEDIVRQINPNLSDRTIFWQLAKLQDMGVLQKIGQNSFHVRN”: the “soluble fraction (log2)” value came out at 0.0251.
Turning to “HMKIERKGDESYLSFVERATSALSDGLIDYQQWGRAVVGEDLYSEENTRRIAKFFAQFIQNLEND”, the “soluble fraction (log2)” value was -1.6.
As to “HMKIKAKYTTDFGIRIYAPKPGKNYWRISYVDLDGKLRDTTATSEKTALDKSAEIEVLLRNN”, the “soluble fraction (log2)” value is -0.232.
Next, “HMKILALETSAKAVSAAVSENGRILASGYQDTGLTHSRTLMPIVEHILKNTDLKLSDMDAIAVAVGPG”: 0.22; “HMKIMSLSERHQKILELLKVNGIVSVNSLSRQLNVSSVTIRKDLGLLEEKKLLYRSHGGAIQID”: -0.213; “HMKINYNEFLRRFLGEKEGDIIEMETGKRIGTHKGYWFHTIGQRKGLGLGGGPWFVIRKDIDENIIYVSHG”: -0.643.
Next, “HMKIPGIGDVYAILARVYSGPQFTWIEAGFPEDDTKAYSYLHTAIRKGSAIAILQAMRTSGALTPTIEKE”: -0.457; “HMKIPPIMFVRAIMVAGRQSMAIMDIEGVGTGIIVRSGYSFSNGEGKVVRIGPDKVTVNWSGKHLDLAPG”: -0.121; “HMKIPQFAVIKQYLEQQIKTAQWAPGRQIPTEQSLADTFSVSRMTARRAVQQLADAGLLERTQGSGTFVAD”: -0.053.
In the case of “HMKISDTITEKILTDNNFSMELAKKIGIQQGSLLSSIRRNRDSRILRLWEAVMFYKEQGYTEEEIFTDY”, the “soluble fraction (log2)” value was -0.864.
For the sequence “HMKISELAKKVIASGRVTQWAKHPHIYFVNGMRKVAIELDVNGVFSISMRYYPYDPADRELVENLIRGD”, the “soluble fraction (log2)” value was -0.572.
Next, “HMKIVQHQLQLPVHVAGKFKGMFYKSDFVMSEDYDDDGNMILAVRLPLVDWNKFLKRTDNELSQYIKVTP”: -1.53.
Take “HMKKALTAEQEARVRELYFRGINYYSANRYQDAIAEWRKVLAIDPNHEKAKNNIRQTLILLK”: the “soluble fraction (log2)” value is -0.123.
Consider “HMKKDNLKKIKSIDEDIENELFKLGIYHFEQISIWSSKNAEWIENFLNLPNYVRANQWVEQAKILK”, for which the “soluble fraction (log2)” value was -0.885.
In the case of “HMKKDRKKMLKEGIVLFEKILRGMELSPTSEPLKKVLTSFNIQNKEDLYVKLGAGVISSEEVIKELKKK”, the “soluble fraction (log2)” value was at least 0.43.
Next, “HMKKILIVTNRSAGMVVYTIPEEGIRREFTPGETKKIPFEELEKLAYLSGGRTLMENFLKIVDTETTEELG”: -1.44; “HMKKIYEEVSEAILTMIKNGTLKPGDKLLPVHQLAEQFQVGRSAVREALSALRAMGLIEMKQGEGTYVKNF”: -0.6; “HMKKKVDSENLLLDILKQMQPQASTNVLRKMLTNQRISVDDQIIHRAKHVVQEGQTVEIHPKP”: 0.139.
Next, “HMKKLPEKFDYNEISGLRIEAQQKLNEFQPLNIGQASRISGVTPADISVLLVYLEQLKYSNPDLFFKLNPD”: -0.743.
Consider “HMKKLTAEEIQEAKDILEKIQEIPNFKKIFGDDTIKALENSTKTGVLLPDNIISKIHTLMIRFGIK”, for which the “soluble fraction (log2)” value was -0.248.
Consider “HMKKMEEEFALFNAWVDRRLGIPLAAYKENQMQRRILTIMENSGAKTLREYQQLIEGDEGVRAAFLAHIT”, for which the “soluble fraction (log2)” value is -1.76.
As for “HMKKPIYLTIANDIEKKIFNNDYPKNERLPSERNLAEEYGVTRMTIRNSIEYLVSKGLLEKRLGSGNYVKR”, the “soluble fraction (log2)” value is at least 0.43.
In the case of “HMKKPLEYIDVDKREDFPPVPNGMRYIHFYGGTKNYRAYIAPEDISRADFMEQYPEYVPEHN”, the “soluble fraction (log2)” value was 0.0177.
With “HMKKSTLLLFFLKELLEGKKISLKSFALENDINIRTAQRYIEDIEEAFPDNLLKENDFYSFV”, the “soluble fraction (log2)” value was -1.05.
Turning to “HMKKTETVRFTTNVTHGTKIKETDVEVVKISNSALPDKVVKNKTEVIGKYATADLFKGDFATENKVTD”, the “soluble fraction (log2)” value was 0.192.
To “HMKKTIIVHVVGEVNTPGIVELNEGARIIDAINGAGGKTEEADMSKINLAYVIEDGSQIYVPSIYE” belongs -1.08; to “HMKKTITISNYINVRDFATMSELPVNSILSVLMKNGIFVSLNEKIDFDTAWLVGSELGLEVKQKQG”, -0.818; to “HMKKYEFIEDLPGVGPATAQKLRDLGYHTVESLAMATARELEPIGVGEKKAFSMIEAARSAIGFS”, 0.00186.
